Reference: the nanobody polyreactivity screen of Harvey et al. (2022)

Test: yeast display, Sf9 membrane polyspecificity reagent, FACS + sequencing; frameworks hold sequencing errors
Procedure, shortened: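 After 36–48 hours of galactose induction, yeast (Saccharomyces cerevisiae BJ5465) displaying a synthetic nanobody library were stained at 4 °C for 1 hour with 10% biotinylated, detergent-solubilized Sf9 membrane reagent. Streptavidin microbeads enriched the stained cells before FACS sorting into low and high (top ~1%) gates on anti-HA and streptavidin fluorescence. Each clone's polyreactivity label reflects its gate of origin.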

For “QVQLVESGGGLVQAGGSLRLSSAASGRTFWNNAMGWYRQAPGKERELVAAITSGGRTNYADSVKGRFTISRDNAKNTVYLQMNSLKPEDTAVYYCAAVGYVIYDYWVQGTQVTVSS”, which “polyreactivity (PSR sort gate)” value is on record?
The value was “low polyreactivity”.

For “QVQLVESGGGLVQAGGSLRLSSAASGRTFYFYAMGWYRQAPGKERELVADIRGITGSTYYADSVKGRFTISRDNAKNTVYLQMNSLKPEDTAVYYCNAYPYIARAPYEYWGQGTQVTVSS”, which “polyreactivity (PSR sort gate)” value is on record?
The value was “high polyreactivity”.

For “QVQLVESGGGLVQAGGSLRLSSAASGRTFYSNAMGWSRQAPGKERELVAAITSTDDSTYYADSVKGRFTISRDNAKNTVYLQMNSLKPEDTAVYYCNTDGLIAIRCVWWVEYDYWGQGTQVTVSS”, which “polyreactivity (PSR sort gate)” value is on record?
The value was “low polyreactivity”.

Which “polyreactivity (PSR sort gate)” value does the source give for “QVQLVESGGGLVQAGGSLRLSSAASGRTGVNAMGWDRHAPGKERELGAAINNGDSTYYADSVKGRFTISRDNAKNTVYLQMNSLTPEDTAVYDCAAGLDEGDYWQESDYWGQGTQVTVSS” here?
The value was “low polyreactivity”.

Which “polyreactivity (PSR sort gate)” value does the source give for “QVQLVESGGGLVQAGGSLRLSSAASGRTLVNYAMGCYRQAPGKERELVAAISYSGGSTYYADSVKGRFTISRDYAKNTVYLQMNSLKPEDTAVYYCAAYYYQRYDYWGQGTQVTVSS” here?
The value was “high polyreactivity”.

Which “polyreactivity (PSR sort gate)” value does the source give for “QVQLVESGGGLVQAGGSLRLSSAASGRTYNVYAMGWSRQAPGKERELVAGITRASTNYADSVKGRFTISRDNAKNTVYLLMNSLKPEVTAVYYCAAKIFPKGDYWGQGTQVTVSS” here?
Its value is “high polyreactivity”.

Which “polyreactivity (PSR sort gate)” value does the source give for “QVQLVESGGGLVQAGGSLRLSSAASGSIFFEYAMRWSRQAPGNEREWVASINRGGGSTYYADSVKGRFTISRDNAKNTVYLQMNSLKPEDTAVYYCAAQWKYRQSYLDYYWGQGTQVTVSS” here?
The value was “low polyreactivity”.

For “QVQLVESGGGLVQAGGSLRLSSAASGSIFGSYAMGWYRQAPGKERELVAAITSGGSTYADSVKGRFTISRDNAKNTVYLQMNSLKPEDTAVYYCNAKFYQSTSNLVQSEYDYWGQGTQVTVSS”, which “polyreactivity (PSR sort gate)” value is on record?
The value was “low polyreactivity”.

Which “polyreactivity (PSR sort gate)” value does the source give for “QVQLVESGGGLVQAGGSLRLSSAASGSIFGVNAMGVYRQAPGKERELVASITGGDSTNYADSVKGRFTISRDNAKNTVYFQMNSLKPEDTAVYYCAKDHYYRYCAAEFVTEYLYGFVYEYDSWGQGTQVTVSS” here?
Its value is “low polyreactivity”.

For “QVQLVESGGGLVQAGGSLRLSSAASGSIFQDNAMGWNRQAPGKERELVAAISVSGGSTYYADSVKGRFTISRDNAKNTVYLQMNSLKPEDTAVYYCAARARGYAWTYDYWGQGTQVTVSS”, which “polyreactivity (PSR sort gate)” value is on record?
The value was “high polyreactivity”.

For “QVQLVESGGGLVQAGGSLRLSSAASGSIFRSNAMGWYRQAHGKERELVAAITSGTRTYYADSVKGRFTISRDNAKNTVYLQMNSLKPEDTAVFYCATKGSKYVRGYWGQGTQVTVSS”, which “polyreactivity (PSR sort gate)” value is on record?
Its value is “high polyreactivity”.

With “QVQLVESGGGLVQAGGSLRLSSAASGSIFRSYTMGWYRQAPGKERELVAAISGRAGSTYYADAVKGRVTISRDNAKNTVYLQMNSLKPEDTAVYYCAVKLGGRSQSYYWGQGTQVTVSS” as the sequence, how does the “polyreactivity (PSR sort gate)” value read?
Its value is “high polyreactivity”.

For “QVQLVESGGGLVQAGGSLRLSSAASGSIFSYNVMGWYRQAPGKERELVAAISWNDGSTYYADSVKGRFTISRDNAKNTVYLQMNSLKPEDTAVYYCAAEYGRRWHNELDYWGQGTQVTVSS”, which “polyreactivity (PSR sort gate)” value is on record?
The value was “low polyreactivity”.

Which “polyreactivity (PSR sort gate)” value does the source give for “QVQLVESGGGLVQAGGSLRLSSAASGSIFTGSALGWYRQAPGKEREFFARITKRGVSTYYADSVKGRFTISRDKAKNTVYLHMNSLKPEDTAVYYCNADRKFPYGSYETHDYWGQGPQVTVSS” here?
Its value is “high polyreactivity”.

For “QVQLVESGGGLVQAGGSLRLSSAASGSIFVPYAMGWYRQAPGKEREFVAAIYSGGGNTYYADSVKGRFTISRDNAKNTVYLQMNSLKPEDTAVYYCAAAYVYSSWSRYDYWGQGTQVTVSS”, which “polyreactivity (PSR sort gate)” value is on record?
The value was “high polyreactivity”.

Which “polyreactivity (PSR sort gate)” value does the source give for “QVQLVESGGGLVQAGGSLRLSSAASGSIFWYYAMGWYRQAPGKERELVADITIRGGRTYYADSVKGRFTISRDNAKNTVYFQMNSLKPEDTAVFYCAADWEYWGFGLYDYWGQGTQVTVSS” here?
Its value is “low polyreactivity”.

With “QVQLVESGGGLVQAGGSLRLSSAASGSIFYQYAMGWYRQAPGKERQLVAAISRSGGSTYYAESVKGRFTISRDNAKNTVYLQMNSLIPEDTAVYYCATDIYSRWAGYKRSQYDYWGQGTQVTVSS” as the sequence, how does the “polyreactivity (PSR sort gate)” value read?
The value was “high polyreactivity”.

Which “polyreactivity (PSR sort gate)” value does the source give for “QVQLVESGGGLVQAGGSLRLSSAASGSIYYPYAMGWYRQAPGKERELVAAIRNGGSTYYADSVKGRFTISRDNAKNTVYLQMNSLKPEETAVYYCNAVYTGPTYGPHRKENYYWGQGTQVTVSS” here?
The value was “high polyreactivity”.

With “QVQLVESGGGLVQAGGSLRLSSAASGSNFGYKAMGWYRQEPGKEREMVAAISYSGASTYYADSVKGRFTISRDNAKNTVYLQKHSLKPEDTAVYYCAAGWKRFSGRKHYYWGQGTQVTVSS” as the sequence, how does the “polyreactivity (PSR sort gate)” value read?
Its value is “high polyreactivity”.

For “QVQLVESGGGLVQAGGSLRLSSAASGSNFSRNTMGWYRQAPGKERELVAAITRGGSTDYADSVKGRFTISRDNAKNTVDLQMNSRKPEDTAVYYCAKKNPGWGKFDYWGQGTQVTVSS”, which “polyreactivity (PSR sort gate)” value is on record?
Its value is “low polyreactivity”.

For “QVQLVESGGGLVQAGGSLRLSSAASGSTFFSNAMGWYRQAPGKERELVATIRFGGGSTYADSVKGRFTISRDNAKNTVYLQMNSLKPEDTAVYYCAADDSDKRYTRSWYGYWGQGTQVAVSS”, which “polyreactivity (PSR sort gate)” value is on record?
The value was “low polyreactivity”.

With “QVQLVESGGGLVQAGGSLRLSSAASGSTFKVNARGWYRQAPGKERELVAGITSSDSTKYADSVKGRFTISRDNAKNTVYLQMNSLKPEDTAVYYSAAETKFSRTSEGDYWGQGTQVTVSS” as the sequence, how does the “polyreactivity (PSR sort gate)” value read?
The value was “low polyreactivity”.

For “QVQLVESGGGLVQAGGSLRLSSAASGSTFNLYAMGWYRQAPGKERELVAAISRRGGSTYYADSVKGRFTISRDNAKNTVYLQMNSLKPEDTAVYYCAAVVVTGQGDKYDYWGQGTQVTVSS”, which “polyreactivity (PSR sort gate)” value is on record?
The value was “high polyreactivity”.

For “QVQLVESGGGLVQAGGSLRLSSAASGSTFNSYAMGWYRQAPGKERELVAGITSRGTSTYYADSVKGRFTISRDNAKNTVYLQMNSLKPEDTAVYYCNKYHYWASPMNYWGHGTQVTVSS”, which “polyreactivity (PSR sort gate)” value is on record?
The value was “high polyreactivity”.

For “QVQLVESGGGLVQAGGSLRLSSAASGSTFRFNAMGWYRQAPGKERELVATISSGGRTYYADSVKGSFTISRDNAKNTVYLQMNSLKPEDTAVYYCAARTGYFLGRFDYWGQGTQVTVSS”, which “polyreactivity (PSR sort gate)” value is on record?
Its value is “high polyreactivity”.

With “QVQLVESGGGLVQAGGSLRLSSAASGSTFWYYAMGWYRQAPGKERELVAGITQSGGSTYYADSVKGRFTISRDNAKNTVYLQMNSLKPEDTAVYYCAKDGRVSGDFDYWGQGTQVTVSS” as the sequence, how does the “polyreactivity (PSR sort gate)” value read?
Its value is “low polyreactivity”.

Which “polyreactivity (PSR sort gate)” value does the source give for “QVQLVESGGGLVQAGGSLRLSSAASGSTIGGYAMGWYRQAPGKERELVAAITRSGGRTYYADSVKGRFTISRDNSKNTVYLQMNSLKPEDTAVYYCATLVTIGRYDSWGQGTQVTVSS” here?
Its value is “high polyreactivity”.

With “QVQLVESGGGLVQAGGSLRLSSAASGSTIGVNARGWYRQAPGKERELVAAISSSGSSTYADSVKGRFTISRDNAKNTVYLQMNSLKPEDTAVYYCNKEWYPYKHNYWGQGTQVTVSS” as the sequence, how does the “polyreactivity (PSR sort gate)” value read?
Its value is “low polyreactivity”.

With “QVQLVESGGGLVQAGGSLRLSSAASGSTIRTNAMGWYRQAPGKATELVAAISKSGGRTYYADSVKGRFTISRDNAKNTVYFQMNSLKPEDTAVYYCNVPRDVVPKVRAHDYWGQGTQVTVSS” as the sequence, how does the “polyreactivity (PSR sort gate)” value read?
Its value is “high polyreactivity”.

With “QVQLVESGGGLVQAGGSLRLSSAASGSTLTFNAMGWYRQAPGKERELVAAISWSDTDTYYADSVKGRFTISRDNAKNTVYLQMNSLKPEDTAVYYCAATVSAYEMDYWGQGTQVTVSS” as the sequence, how does the “polyreactivity (PSR sort gate)” value read?
Its value is “low polyreactivity”.

For “QVQLVESGGGLVQAGGSLRLSSAASGSTSPRNAMGWYRQAPGKERELVAAISSGGRTNYADSVKGRFTISRDNAKNTVYFQMHSLKPEDTAVYYCAAVVHSTYWAQGTQVTVSS”, which “polyreactivity (PSR sort gate)” value is on record?
Its value is “low polyreactivity”.

For “QVQLVESGGGLVQAGGSLRLSSAASGTFWWYAMGWYRQAPGQEMELVASINRGGSTYYADSVKGRFTISRDNAKNTVYLQMNSLKPEDTAVYYCAAQVDRKYRWFNSWGQGTQVTVSS”, which “polyreactivity (PSR sort gate)” value is on record?
The value was “high polyreactivity”.

Which “polyreactivity (PSR sort gate)” value does the source give for “QVQLVESGGGLVQAGGSLRLSSAASGYIFDRYTMGWYRQAPGKERELVASISRRGGSTYYADSVKGRFTISRDNAKNTVYLQMNSLKPEDTAVYYCAAPNALGYLFQGFDYWGLGTQVTVSS” here?
Its value is “high polyreactivity”.

Which “polyreactivity (PSR sort gate)” value does the source give for “QVQLVESGGGLVQAGGSLRLSSAASGYIFGANGMGWYRQAPGKERELVATITSGGRTYYADSVKGRFTISRDNAKNNVYLQMNSLKPEDTAVYYCAAKLQYRWTWGYYYWGQGTQVTVSS” here?
Its value is “high polyreactivity”.

Which “polyreactivity (PSR sort gate)” value does the source give for “QVQLVESGGGLVQAGGSLRLSSAASVSTVTPYAMGWYRQAPGKERELVAVISESGGSTYYADSVKGRFTISRDNAKNTVYLQMNSLKPEDTAVYYCAKASYPEVLYYFFRGYTFDSWGQGTQVTVSS” here?
Its value is “low polyreactivity”.

Which “polyreactivity (PSR sort gate)” value does the source give for “QVQLVESGGGLVQAGGSLRLSSAATGRTFASNAMGWYRQAPGKERELVAAIRYRGDRTSYADSVKGRFTISRDNAKNTVYLQMNSLKPEDTAVYYCAAYYNSHGLDYWGQGTQVNVSS” here?
The value was “low polyreactivity”.

Which “polyreactivity (PSR sort gate)” value does the source give for “QVQLVESGGGLVQAGGSLRLSSAATGRTFASYAMGWYRPAPGKERELVAVITRGVRTYYADSVKGRFTISRDNAKNTVYLEMNSLKPEDTAVYYCAKERYNANYDTSLYDYWGQGTQVTVSS” here?
Its value is “low polyreactivity”.

For “QVQLVESGGGLVQAGGSLRLSSAAYGIIIGYYAMGWYRQPPGKERELVAAISWSGGSTYYADSVKGRFTISRDNAKNTVYLQMNSLKPEDTAVYYCAAVVRRKSGNDTWRYNYWGQGTQVTVSS”, which “polyreactivity (PSR sort gate)” value is on record?
Its value is “high polyreactivity”.

Which “polyreactivity (PSR sort gate)” value does the source give for “QVQLVESGGGLVQAGGSLRLSSAPSGIIIDYYAMGWYRQSPGKERELVAAITSGGSTSYADSEKGGFTISRDNAKKTVYLQMNSLKPEDTAVYYCNTEPSGYESGYWGQGTQVTVSS” here?
The value was “low polyreactivity”.

Which “polyreactivity (PSR sort gate)” value does the source give for “QVQLVESGGGLVQAGGSLRLSSAPSGSTFPGYAMGWYRQAPGKERQLVAAITGRGTSTYYADSVKGRFTISRDNAKNTVYLQMNSLKPEDTAVYYCAPYATFPTRYYYWGQGTQVTVSS” here?
Its value is “high polyreactivity”.

Which “polyreactivity (PSR sort gate)” value does the source give for “QVQLVESGGGLVQAGGSLRLSSASSGSTFSLNAMGWYRQAPGTERELVAAISSSTGRTSYADSVKGRFTISRDNAKNTVYLQMTSLNPEDTAVYYCAADVYESLYFPYDSWRQGTQVTVSS” here?
The value was “low polyreactivity”.

Which “polyreactivity (PSR sort gate)” value does the source give for “QVQLVESGGGLVQAGGSLRLSSGASGLTIRRYAMGWSRQAPGKEREFVATISQNGGRTYYADSVKGRFTISRDNAKNTFYLQMNSLKPEDTAVYYCAAEDWRWGYDYWGQGTQVTVSS” here?
The value was “high polyreactivity”.

For “QVQLVESGGGLVQAGGSLRLSSGASGRIFAVYAMGWYRQAPGKERELVAAISYIGGSTYYADSVKGRFTISRDNAKNSVYLQMNSLKPEDTAVYYCATDSHDDTGAYDYWGQGTQVTVSS”, which “polyreactivity (PSR sort gate)” value is on record?
Its value is “low polyreactivity”.
